Paper PMC4113420 (Molecular cell, 2014)

Assays:
[1] = target: Msh2-Msh6 (S. cerevisiae, UniProt P25847 1-964; Q03834 1-1242); assay: SPR
[2] = target: the molecule itself; assay: SEC

Chain of Msh2-Msh6 (P25847 whole entry, chain 1 of 2): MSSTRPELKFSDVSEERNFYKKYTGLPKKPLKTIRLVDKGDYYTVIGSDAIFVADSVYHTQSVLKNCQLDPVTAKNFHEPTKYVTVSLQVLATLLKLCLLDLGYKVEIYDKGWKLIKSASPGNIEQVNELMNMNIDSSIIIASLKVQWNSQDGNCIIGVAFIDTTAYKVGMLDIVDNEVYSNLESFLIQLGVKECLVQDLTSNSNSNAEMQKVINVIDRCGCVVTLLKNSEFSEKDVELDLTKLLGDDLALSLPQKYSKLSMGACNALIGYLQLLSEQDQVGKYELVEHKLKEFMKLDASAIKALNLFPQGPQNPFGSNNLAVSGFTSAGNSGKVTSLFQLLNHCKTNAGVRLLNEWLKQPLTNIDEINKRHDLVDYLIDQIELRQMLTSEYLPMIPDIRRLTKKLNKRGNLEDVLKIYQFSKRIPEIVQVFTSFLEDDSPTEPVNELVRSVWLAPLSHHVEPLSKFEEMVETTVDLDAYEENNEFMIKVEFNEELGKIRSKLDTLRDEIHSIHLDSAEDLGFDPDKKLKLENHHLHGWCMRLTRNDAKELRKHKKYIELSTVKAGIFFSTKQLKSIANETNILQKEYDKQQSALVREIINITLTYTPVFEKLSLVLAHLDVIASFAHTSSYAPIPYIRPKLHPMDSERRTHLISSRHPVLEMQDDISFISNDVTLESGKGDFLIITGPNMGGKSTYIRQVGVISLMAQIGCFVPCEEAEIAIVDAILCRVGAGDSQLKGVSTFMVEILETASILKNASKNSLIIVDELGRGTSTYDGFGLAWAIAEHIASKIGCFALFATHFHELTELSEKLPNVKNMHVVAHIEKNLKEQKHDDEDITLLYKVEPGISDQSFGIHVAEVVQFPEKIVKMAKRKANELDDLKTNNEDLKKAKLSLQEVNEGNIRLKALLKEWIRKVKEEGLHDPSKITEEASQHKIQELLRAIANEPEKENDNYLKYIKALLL
Chain of Msh2-Msh6 (Q03834 whole entry, chain 2 of 2): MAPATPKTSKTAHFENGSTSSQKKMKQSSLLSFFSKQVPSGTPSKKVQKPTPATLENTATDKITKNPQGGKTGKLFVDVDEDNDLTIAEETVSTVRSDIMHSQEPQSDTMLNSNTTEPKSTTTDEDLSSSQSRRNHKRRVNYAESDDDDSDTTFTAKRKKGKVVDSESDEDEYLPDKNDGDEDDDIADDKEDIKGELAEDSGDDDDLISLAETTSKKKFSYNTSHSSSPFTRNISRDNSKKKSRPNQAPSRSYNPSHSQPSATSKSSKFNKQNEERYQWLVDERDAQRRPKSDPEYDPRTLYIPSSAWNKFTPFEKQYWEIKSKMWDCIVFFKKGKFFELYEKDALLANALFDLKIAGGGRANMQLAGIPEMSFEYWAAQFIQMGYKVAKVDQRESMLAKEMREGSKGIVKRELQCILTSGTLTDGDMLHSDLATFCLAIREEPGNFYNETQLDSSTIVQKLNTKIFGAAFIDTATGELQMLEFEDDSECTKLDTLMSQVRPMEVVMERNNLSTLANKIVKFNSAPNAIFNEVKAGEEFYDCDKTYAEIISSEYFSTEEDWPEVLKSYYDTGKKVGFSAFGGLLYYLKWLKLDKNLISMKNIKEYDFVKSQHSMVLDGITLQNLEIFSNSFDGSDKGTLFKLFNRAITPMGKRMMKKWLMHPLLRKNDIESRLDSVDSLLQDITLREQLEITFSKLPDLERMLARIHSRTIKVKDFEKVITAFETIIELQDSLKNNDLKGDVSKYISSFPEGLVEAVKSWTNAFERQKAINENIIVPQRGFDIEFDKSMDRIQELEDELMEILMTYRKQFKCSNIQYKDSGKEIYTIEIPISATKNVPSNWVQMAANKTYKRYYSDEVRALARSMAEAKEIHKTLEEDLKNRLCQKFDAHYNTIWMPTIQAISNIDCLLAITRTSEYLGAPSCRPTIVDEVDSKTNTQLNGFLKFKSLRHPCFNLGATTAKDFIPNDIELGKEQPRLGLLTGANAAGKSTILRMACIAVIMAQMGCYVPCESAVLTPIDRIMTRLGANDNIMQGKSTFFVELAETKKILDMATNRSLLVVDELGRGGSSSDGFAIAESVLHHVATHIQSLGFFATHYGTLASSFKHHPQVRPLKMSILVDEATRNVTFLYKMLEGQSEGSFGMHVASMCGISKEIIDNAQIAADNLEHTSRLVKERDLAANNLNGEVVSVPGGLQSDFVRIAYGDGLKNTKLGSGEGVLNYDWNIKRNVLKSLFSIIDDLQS

Binder	binding result [1]	binding result [2]
PCNA-K13E (natural protein, S. cerevisiae, biotinylated when bound to the SPR chip (site not stated)) MLEAKFEEASLFERIIDGFKDCVQLVNFQCKEDGIIAQAVDDSRVLLVSLEIGVEAFQEYRCDHPVTLGMDLTSLSKILRCGNNTDTLTLIADNTPDSIILLFEDTKKDRIAEYSLKLMDIDADFLKIEELQYDSTLSLPSSEFSKIVRDLSQLSDSINIMITKETIKFVADGDIGSGSVIIKPFVDMEHPETSIKLEMDQPVDLTFGAKYLLDIIKGSSLSDRVGIRLSSEAPALFQFDLKSGFLQFFLAPKFNDEE	binds	binds
PCNA-F254L (natural protein, S. cerevisiae, biotinylated when bound to the SPR chip (site not stated)) MLEAKFEEASLFKRIIDGFKDCVQLVNFQCKEDGIIAQAVDDSRVLLVSLEIGVEAFQEYRCDHPVTLGMDLTSLSKILRCGNNTDTLTLIADNTPDSIILLFEDTKKDRIAEYSLKLMDIDADFLKIEELQYDSTLSLPSSEFSKIVRDLSQLSDSINIMITKETIKFVADGDIGSGSVIIKPFVDMEHPETSIKLEMDQPVDLTFGAKYLLDIIKGSSLSDRVGIRLSSEAPALFQFDLKSGFLQFFLAPKLNDEE	binds	binds
PCNA-C81R (natural protein, S. cerevisiae, biotinylated when bound to the SPR chip (site not stated)) MLEAKFEEASLFKRIIDGFKDCVQLVNFQCKEDGIIAQAVDDSRVLLVSLEIGVEAFQEYRCDHPVTLGMDLTSLSKILRRGNNTDTLTLIADNTPDSIILLFEDTKKDRIAEYSLKLMDIDADFLKIEELQYDSTLSLPSSEFSKIVRDLSQLSDSINIMITKETIKFVADGDIGSGSVIIKPFVDMEHPETSIKLEMDQPVDLTFGAKYLLDIIKGSSLSDRVGIRLSSEAPALFQFDLKSGFLQFFLAPKFNDEE	binds	
PCNA-L68S (natural protein, S. cerevisiae, biotinylated when bound to the SPR chip (site not stated)) MLEAKFEEASLFKRIIDGFKDCVQLVNFQCKEDGIIAQAVDDSRVLLVSLEIGVEAFQEYRCDHPVTSGMDLTSLSKILRCGNNTDTLTLIADNTPDSIILLFEDTKKDRIAEYSLKLMDIDADFLKIEELQYDSTLSLPSSEFSKIVRDLSQLSDSINIMITKETIKFVADGDIGSGSVIIKPFVDMEHPETSIKLEMDQPVDLTFGAKYLLDIIKGSSLSDRVGIRLSSEAPALFQFDLKSGFLQFFLAPKFNDEE	binds	
PCNA-K217E (natural protein, S. cerevisiae, biotinylated when bound to the SPR chip (site not stated)) MLEAKFEEASLFKRIIDGFKDCVQLVNFQCKEDGIIAQAVDDSRVLLVSLEIGVEAFQEYRCDHPVTLGMDLTSLSKILRCGNNTDTLTLIADNTPDSIILLFEDTKKDRIAEYSLKLMDIDADFLKIEELQYDSTLSLPSSEFSKIVRDLSQLSDSINIMITKETIKFVADGDIGSGSVIIKPFVDMEHPETSIKLEMDQPVDLTFGAKYLLDIIEGSSLSDRVGIRLSSEAPALFQFDLKSGFLQFFLAPKFNDEE	binds	binds

Now from value to binder, other results behind:

binding result [1]	Binder	binding result [2]
binds	Wild-type PCNA (S. cerevisiae, encoded by POL30) (natural protein, biotinylated when bound to the SPR chip (site not stated)) MLEAKFEEASLFKRIIDGFKDCVQLVNFQCKEDGIIAQAVDDSRVLLVSLEIGVEAFQEYRCDHPVTLGMDLTSLSKILRCGNNTDTLTLIADNTPDSIILLFEDTKKDRIAEYSLKLMDIDADFLKIEELQYDSTLSLPSSEFSKIVRDLSQLSDSINIMITKETIKFVADGDIGSGSVIIKPFVDMEHPETSIKLEMDQPVDLTFGAKYLLDIIKGSSLSDRVGIRLSSEAPALFQFDLKSGFLQFFLAPKFNDEE	binds
binds	PCNA-C22Y (natural protein, S. cerevisiae, biotinylated when bound to the SPR chip (site not stated)) MLEAKFEEASLFKRIIDGFKDYVQLVNFQCKEDGIIAQAVDDSRVLLVSLEIGVEAFQEYRCDHPVTLGMDLTSLSKILRCGNNTDTLTLIADNTPDSIILLFEDTKKDRIAEYSLKLMDIDADFLKIEELQYDSTLSLPSSEFSKIVRDLSQLSDSINIMITKETIKFVADGDIGSGSVIIKPFVDMEHPETSIKLEMDQPVDLTFGAKYLLDIIKGSSLSDRVGIRLSSEAPALFQFDLKSGFLQFFLAPKFNDEE	binds
binds	PCNA-E143K (natural protein, S. cerevisiae, biotinylated when bound to the SPR chip (site not stated)) MLEAKFEEASLFKRIIDGFKDCVQLVNFQCKEDGIIAQAVDDSRVLLVSLEIGVEAFQEYRCDHPVTLGMDLTSLSKILRCGNNTDTLTLIADNTPDSIILLFEDTKKDRIAEYSLKLMDIDADFLKIEELQYDSTLSLPSSKFSKIVRDLSQLSDSINIMITKETIKFVADGDIGSGSVIIKPFVDMEHPETSIKLEMDQPVDLTFGAKYLLDIIKGSSLSDRVGIRLSSEAPALFQFDLKSGFLQFFLAPKFNDEE	binds
